Common to all, as to experiment: EMSA
(In EMSA bound probe runs differently from free probe, usually more slowly.)

In data set [1] the target is T1, CREB (purified) (UniProt P16220 1-327).
Data set [2] addresses hnRNP K (purified);CREB (purified) (;, UniProt P61978;P16220 1-463;1-327, |).
Data set [3] deals with T1, CREB (purified). This is another data set of the same source.

Read-outs that look alike come from different tables or passages of the source.

T1 sequence (P16220 whole entry): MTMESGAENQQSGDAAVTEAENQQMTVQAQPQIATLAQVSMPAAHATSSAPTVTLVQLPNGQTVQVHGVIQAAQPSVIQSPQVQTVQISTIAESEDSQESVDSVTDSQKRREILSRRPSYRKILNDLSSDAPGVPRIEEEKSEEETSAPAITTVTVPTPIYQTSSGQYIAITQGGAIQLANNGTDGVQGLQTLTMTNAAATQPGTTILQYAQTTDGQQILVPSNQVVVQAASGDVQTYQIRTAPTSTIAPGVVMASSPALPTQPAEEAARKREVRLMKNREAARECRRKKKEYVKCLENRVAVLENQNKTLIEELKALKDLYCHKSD
Sequence of hnRNP K (purified);CREB (purified) (P16220 whole entry, chain 2 of 2, other chains not shown): as the sequence (P16220 whole entry) above

B1: Th GC-R1/CRE duplex WT (EMSA) (dsDNA)
DNA 1: GCAGGAGGTAGGAGGTGGGGGACCCAGAGGGGCTTTGACGTCAGCCTGGCC
DNA 2: GGCCAGGCTGACGTCAAAGCCCCTCTGGGTCCCCCACCTCCTACCTCCTGC
In the case of B1, the binding result in data set [1] and in data set [2] was “binds” throughout.

B2: CRE mutant duplex (EMSA) (dsDNA)
DNA 1: GCAGGAGGTAGGAGGTGGGGGACCCAGAGGGGCTTGTCATCAGGCCTGGCC
DNA 2: GGCCAGGCCTGATGACAAGCCCCTCTGGGTCCCCCACCTCCTACCTCCTGC
B2: the binding result in data set [3] was “binds”.

These data come from article PMC4264680.
